Data as given in patent US7977317B2, “Compositions and methods for modulating blood-brain barrier transport” (Raptor Pharmaceutical Inc., priority 2001, dated 2011).
“Also recorded” adds a separate entry of the source.

B1: lactoferrin: lactoferrin (Lf), LRP ligand used as competitor (protein, UniProt P02788 20-710, looked up)
Lactotransferrin: GRRRSVQWCAVSQPEATKCFQWQRNMRKVRGPPVSCIKRDSPIQCIQAIAENRADAVTLDGGFIYEAGLAPYKLRPVAAEVYGTERQPRTHYYAVAVVKKGGSFQLNELQGLKSCHTGLRRTAGWNVPIGTLRPFLNWTGPPEPIEAAVARFFSASCVPGADKGQFPNLCRLCAGTGENKCAFSSQEPYFSYSGAFKCLRDGAGDVAFIRESTVFEDLSDEAERDEYELLCPDNTRKPVDKFKDCHLARVPSHAVVARSVNGKEDAIWNLLRQAQEKFGKDKSPKFQLFGSPSGQKDLLFKDSAIGFSRVPPRIDSGLYLGSGYFTAIQNLRKSEEEVAARRARVVWCAVGEQELRKCNQWSGLSEGSVTCSSASTTEDCIALVLKGEADAMSLDGGYVYTAGKCGLVPVLAENYKSQQSSDPDPNCVDRPVEGYLAVAVVRRSDTSLTWNSVKGKKSCHTAVDRTAGWNIPMGLLFNQTGSCKFDEYFSQSCAPGSDPRSNLCALCIGDEQGENKCVPNSNERYYGYTGAFRCLAENAGDVAFVKDVTVLQNTDGNNNEAWAKDLKLADFALLCLDGKRKPVTEARSCHLAMAPNHAVVSRMDKVERLKQVLLHQQAKFGRNGSDCPDKFCLFQSETKNLLFNDNTECLARLHGKTTYEKYLGPQYVAGITNLKKCSTSPLLEACEFLRK
B2: p97: recombinant human melanotransferrin (p97), provided by Synapse Technologies (protein, UniProt P08582 20-709, looked up)
Melanotransferrin: GMEVRWCATSDPEQHKCGNMSEAFREAGIQPSLLCVRGTSADHCVQLIAAQEADAITLDGGAIYEAGKEHGLKPVVGEVYDQEVGTSYYAVAVVRRSSHVTIDTLKGVKSCHTGINRTVGWNVPVGYLVESGRLSVMGCDVLKAVSDYFGGSCVPGAGETSYSESLCRLCRGDSSGEGVCDKSPLERYYDYSGAFRCLAEGAGDVAFVKHSTVLENTDGKTLPSWGQALLSQDFELLCRDGSRADVTEWRQCHLARVPAHAVVVRADTDGGLIFRLLNEGQRLFSHEGSSFQMFSSEAYGQKDLLFKDSTSELVPIATQTYEAWLGHEYLHAMKGLLCDPNRLPPYLRWCVLSTPEIQKCGDMAVAFRRQRLKPEIQCVSAKSPQHCMERIQAEQVDAVTLSGEDIYTAGKTYGLVPAAGEHYAPEDSSNSYYVVAVVRRDSSHAFTLDELRGKRSCHAGFGSPAGWDVPVGALIQRGFIRPKDCDVLTAVSEFFNASCVPVNNPKNYPSSLCALCVGDEQGRNKCVGNSQERYYGYRGAFRCLVENAGDVAFVRHTTVFDNTNGHNSEPWAAELRSEDYELLCPNGARAEVSQFAACNLAQIPPHAVMVRPDTNIFTVYGLLDKAQDLFGDDHNKNGFKMFDSSNYHGQDLLFKDATVRAVPVGEKTTYRGWLGLDYVAALEGMSSQQC

How the values were obtained:
[1] = test system: BBCEC monolayers; assay: Transcytosis across BBCEC monolayers (in vitro BBB model); format: cell-based, bovine; conditions: for Effect on transcytosis of 125I-p97: competitor 5 micromolar (FIG. 10a, 10b)
Excerpt: FIG. 10 assesses the ability of several agents to interfere with p97 transyctosis. FIG. 10a, transcytosis of I125-P97 was compared in the presence of cold p97 (5 micromolar), Lf (5 micromolar), and Tf (5 micromolar). […] FIG. 10c, RAP, a known poly-peptide inhibitor of the LDL-Receptor family was applied to the cells (25 micrograms/ml).
FIG. 11 examines the accumulation and transcytosis of p97. FIG. 11a, of [^125I]-p97, [^125I]-BSA and [^125I]-holo-transferrin one hour after i.v. injection. The radioactivity in brain was compared between the three compounds. (n=3); FIG. 11b, Accumulation of p97 and transferrin into the mouse brain parenchyma. In situ brain perfusion was performed with human [^125I]-p97 or [^125I]-holo-transferrin at a final concentration of 10 nM via a catheter inserted in the right common carotid artery. The volume of distribution (VD) of [^125I]-proteins were obtained in the whole brain homogenate (white bars), in brain capillaries (solid bars) and in brain parenchyma (hatched bars) after isolation of the right hemisphere and capillary depletion. Results were obtained for p97 (n=10) and for holo-transferrin (n=6); FIG. 11c, Transcytosis of p97 across BBCEC monolayers. Transcytosis experiments were performed 37° C. (open circles) and 4° C. (closed circles) with BBCEC monolayers. [^125I]-p97 (1 mg/ml) was added to the upper side of the cell-covered filter. One representative experiment is shown (n=4); FIG. 11d, Preferential transport of p97 across the BBCEC monolayers. Apical-to-basal and basal-to-apical transport of [^125I]-p97 (25 nM) was measured for 2 hrs at 37° C. At the end of the experiment, [^125I]-p97 was assessed in the lower or upper chambers of each well by TCA precipitation (n=4).
FIG. 13 illustrates the transcytosis and accumulation of p97 and transferrin in BBCEC monolayers. FIG. 13a, Transcytosis experiments were performed at 37° C. (solid bars) or 4° C. (white bars). [^125I]-p97 or bovine [^125I]-holo-transferrin (1 mg/ml) was added to the upper side of the cell-covered filter. At the end of the experiment, radiolabelled proteins were measured in the lower chamber of each well by TCA precipitation (n=4). Controls were also performed at 37° C. with denatured [^125I]-p97 or bovine [^125I]-holo-transferrin boiled for 30 min (grey bars) (n=2); FIG. 13b, Biospecific interaction analysis was performed with native or boiled p97 for the indicated times. MAb L235 (5 μg) was immobilized on a sensor chip (SM5) using standard procedures incorporating NHS, EDC and ethanolamine. Native and boiled p97 (5 to 30 min) diluted at 1 mg/ml in Ringer/Hepes was cooled and injected into the BIAcore. The surface plasmon resonance response obtained for native p97 and boiled p97 was plotted (in relative units (RU)) as a function of time; FIG. 13c, The accumulation of both proteins into BBEC cells were also measured. Briefly, after incubation at 37° C. (solid bars) or 4° C. (white bars) with either [^125I]-protein, cells were washed four times with cold PBS. Accumulation of both denatured proteins (grey bars) was also measured at 37° C. Filters were then removed, and the radioactivity associated with the cells was quantified (n=3).
FIG. 14 illustrates the stability of p97 and integrity of the BBCEC monolayers following p97 transcytosis. FIG. 14a, Transcytosis experiments were performed at 37° C. and 4° C. by adding p97 (1 mg/ml) to the upper compartment. At the end of the experiment, 50 μl from each lower chamber was used for SDS-polyacrylamide gel electrophoresis. After electrophoresis, the gels were stained with Coomassie Blue. A standard curve was also made with known amounts of recombinant p97 (0-2 μg); FIG. 14b. The gels were dried and scanned to quantify the amount of intact p97 that crossed the BBCEC monolayers at 37° C. and 4° C. (n=3); FIG. 14c, Effect of p97 on sucrose permeability of BBCE cell monolayers co-cultured with astrocytes. […]

[2] = test system: RBE4 cells; assay: Competition of [125I]-p97 binding on rat brain endothelial cells (RBE4); conditions: competitor 10 micromolar, 2 hrs at 4° C. (FIG. 4)
Protocol: FIG. 4. Binding of p97 on rat brain endothelial cells. Binding p97 was performed with RBE4 that were pre-incubated 2 hrs in Ringer-Hepes. For the binding experiments, cells in 24-well microplates were incubated for 2 h at 4° C. in Ringer/Hepes in the presence of [^125I]-p97 (25 nM) and 10 micromolar concentrations of cold-p97, transferrin or lactoferin, respectively. At the end of the incubation, the cells were gently washed at 4° C. three times with 4 ml of cold-PBS. RBE4 cells were then lysed with Triton X-100 and the associated radioactivity of with cell lysates was determined.
RBE4 cells were grown in monolayers in 24 wells plastic tissue culture flasks at 37° C. under 5% CO2 in minimum essential medium Alpha and Ham's F10 (1:1) supplemented with 10% heat inactivated fetal bovine serum. For p97 binding experiments, RBE4 cells were pre-incubated at 37° C. for 2 hrs in Ringer/Hepes. ^125I-p97 in 200 μl of Ringer/Hepes was added to RBE4 cells for 2 hrs at 4° C. in the presence or absence of high concentration of cold-p97, human holo-transferrin or human lactoferrin. After the incubation, the cells were washed 4 times with PBS and the ^125I-p97 associated with the cells was measured.

[3] = test system: bovine brain capillary endothelial cell monolayers; assay: Competition of [125I]-p97 binding on bovine brain capillary endothelial cell monolayers; conditions: [125I]-p97 25 nM, 2 h at 4° C., competitor 7.5 micromolar (FIG. 3)
Protocol: FIG. 3. Binding of p97 on bovine brain capillary endothelial cell monolayers. Binding p97 was performed with BBCECs that were pre-incubated 2 hrs in Ringer-Hepes to avoid any interference from the astrocytes. For the binding experiments, cells were incubated for 2 h at 4° C. in Ringer/Hepes in the presence of [^125I]-p97 (25 nM) and 7.5 micromolar concentrations of cold-p97, transferrin or lactoferrin, respectively. At the end of the incubation, the filters were gently washed at 4° C. three times with 4 ml of cold-PBS. Then the associated radioactivity of endothelial cells was determined by removing the membrane of the culture insert and counting it in a gamma counter.
B. Binding studies of p97. Binding of p97 was performed with BBCECs and Rat Brain Endothelial Cells that were pre-incubated 2 hrs in Ringer/Hepes to avoid any interference from the astrocytes.
For the binding experiments, cells were incubated for 2 h at 4° C. in Ringer/Hepes in the presence of [^125I]-p97 (25 nM) and increasing concentrations of cold-p97 or high (7.5 micromolar) concentrations of transferrin or lactoferrin. At the end of the incubation, the filters were gently washed at 4° C. three times with 4 ml of cold-PBS. Then the associated radioactivity of endothelial cells was determined by removing the membrane of the culture insert and counting it in a gamma counter.

Molecule	Effect on transcytosis of 125I-p97 [1]	Inhibition of [125I]-p97 binding to RBE4 cells [2]	Inhibition of [125I]-p97 binding to BBCECs [3]	[125I]-p97 transport apical-to-basolateral relative to basolateral-to-apical ([1]; 25 nM, after 2 hrs at 37° C. (FIG. 11d))	Temperature dependence of p97 transcytosis ([1]; 37° C. versus 4° C., apical to basolateral)	Transport from the apical to the basolateral surface of ECs compared with transferrin ([1]; 37° C., 1 mg/ml (FIG. 13a))	Saturability of p97 transcytosis ([1]; FIG. 9)	Degradation of p97 after transcytosis ([1]; SDS-PAGE of lower compartment, 30-120 min (FIG. 14a))	Effect of heat-denaturation on passage through BBCEC monolayers ([1]; boiled 30 min, 37° C. (FIG. 13a))	Membrane bound p97 transcytosed ([1]; in 10 minutes (FIG. 20))	Total amount of intact p97 after transendothelial transcytosis ([1]; p97 1 mg/ml, gel densitometry (FIG. 14b))
B1	only the cold p97 successfully reduced	competitively inhibit	competitively inhibited								
B2	successfully reduced	competitively inhibit	competitively inhibited	about 3 fold	significantly higher at 37 °C than at 4 °C; also recorded: dramatic reduction	much higher than for transferrin	saturable phenomenon	no apparent degradation	reduced the passage	80%	35 μg/cm^2
